According to US20040175804A1, “Process for preparing dideoxyinosine using adenosine deaminase enzyme” (priority 2003, published 2004):

Columns and labels:
[1] = ADA activity assay (1 U = 1 μmol of ddA deaminated/min at 37° C.); assay type: biochemical; conditions: 1 unit = 1 μmol of ddA deaminated/min at 37° C.; on IPS-400 support
Description: The enzyme so derived should be assayed for activity. As used herein, a unit (U) of enzymatic activity is that amount of enzyme which will deaminate 1 μmol of ddA per minute at 37° C. Desirably, the final enzyme titer is from about 650-750 U/ml. The assay may be performed by adding enzyme to a 2.4% solution of ddA at 37° C. The reaction is allowed to proceed for 15 min while gently stirring. Tetrahydrofuran is added to stop the reaction. A sample is taken and run on HPLC to determine the amount of ddI formed.
The immobilized enzyme assays show an enzymatic activity of ˜100 U/g. (1 unit=1 μmol of ddA deaminated/min at 37° C.).

[2] = Conversion of a 52-60 g/L solution of ddA in water to ddI by adenosine deaminase; assay type: biochemical; conditions: for Conversion of ddA to ddI: 40 U/g ddA, 52-60 g/L ddA in water
Description: 100.0 g ddA is added to 1900 ml of water at 30° C. (mother liquor from previous runs can also be used). After the ddA has been added (complete dissolution is not necessary), 4000 U of immobilized rec human adenosine deaminase is added. […] The reaction is complete (approximately 5-8 hours) when the level of residual ddA is less than or equal to 1% of the original amount of ddA added. The enzyme solids are removed by filtration (20-30 μm media) and the enzyme cake is washed with 100 ml water. The used enzyme is held as a wet cake at 0-5° C. (for up to 72 hours) and can be recycled to another batch.
Microbial ADA from recombinant E. coli was partially purified and isolated as an ammonium sulfate suspension. E. coli fermentation broth (42 U ADA/mL, 2 L) was centrifuged and the cell pellet was collected and washed with 1 L 100 mM phosphate buffer pH 7.5. The cells were again centrifuged and resuspended in 2 L of the above buffer plus 20% glycerol. The cells were passed once through a microfluidizer. Cell debris was removed by centrifugation and the resulting supernatant was concentrated by ultrafiltration through a 30,000 MWCO cassette. The enzyme was concentrated to a final titer of 390 U/ml. Ammonium sulfate was added to a 50% saturation, the resulting precipitate was collected by centrifugation and re-suspended in 100 ml deionized water. The final titer of the slurry was 740 U/ml; the protein content of the slurry was ˜75 mg/ml.

B1: Recombinant human immobilized ADA: Human adenosine deaminase (SEQ ID NO: 1) expressed in E. coli, immobilized on glutaraldehyde-activated IPS-400 support (protein, listed as Homo sapiens)
chain: MAQTPAFDKPKVELHVHLDGSIKPETILYYGRRRGIALPANTAEGLLNVIGMDKPLTLPDFLAKFDYYMPAIAGCREAIKRIAYEFVEMKAKEGVVYVEVRYSPHLLANSKVEPIPWNQAEGDLTPDEVVALVGQGLQEGERDFGVKARSILCCMRHQPNWSPKVVELCKKYQQQTVVAIDLAGDETIPGSSLLPGHVQAYQEAVKSGIHRTVHAGEVGSAEVVKEAVDILKTERLGHGYHTLEDQALYNRLRQENMHFEICPWSSYLTGAWKPDTEHAVIRLKNDQANYSLNTDDPLIFKSTLDTDYQMTKRDMGFTEEEFKRLNINAAKSSFLPEDEKRELLDLLYKAYGMPPSASAGQNL
modifications: immobilized on glutaraldehyde-activated IPS-400 support; (1)..(363) gi 14043373
- Enzymatic activity of immobilized enzyme [1]: ~100 U/g
- Conversion of ddA to ddI ([2]; 30 °C, 4.5 hours): 100%
- Conversion of ddA to ddI ([2]; 40 °C, 1.5 hours): 100%
- Stability of the enzyme in the ddA to ddI reaction ([2]; compared with microbial enzymes): significantly more stable than microbial enzymes
